The values that follow come from article PMC3500403 (Developmental cell, 2012).

The target of the assay is taxol stabilized microtubules (UniProt Q6B856 1-445). Kind of assay: co-sedimentation.

B1: C. elegans SKA-1 microtubule binding domain (residues 118-243) (domain or fragment, UniProt Q9XWS0 118-243, looked up)
chain: NDIRIVPQITDEEFKTIPKYQLGRLTLEMMNEIVSKMDDFLMKKSKILGKTNKQLTRSDREVLDNWRELEMKARKRLPTTLFFIETDIRPMLQDRLRPSFAKAIPCLRHIRRIREERCGPLTFYYP
A word on the Kd: it is the constant that tells how readily two partners part at equilibrium. A lower Kd goes with tighter binding. In turn, B1 displayed a Kd of 6.3 µM.
